Experimental data as given in IntAct's records for PubMed 19684601.

B1: Myocyte-specific enhancer factor 2A (Homo sapiens), Q02078-1 (parent)
chain: MGRKKIQITRIMDERNRQVTFTKRKFGLMKKAYELSVLCDCEIALIIFNSSNKLFQYASTDMDKVLLKYTEYNEPHESRTNSDIVEALNKKEHRGCDSPDPDTSYVLTPHTEEKYKKINEEFDNMMRNHKIAPGLPPQNFSMSVTVPVTSPNALSYTNPGSSLVSPSLAASSTLTDSSMLSPPQTTLHRNVSPGAPQRPPSTGNAGGMLSTTDLTVPNGAGSSPVGNGFVNSRASPNLIGATGANSLGKVMPTKSPPPPGGGNLGMNSRKPDLRVVIPPSSKGMMPPLSEEEELELNTQRISSSQATQPLATPVVSVTTPSLPPQGLVYSAMPTAYNTDYSLTSADLSALQGFNSPGMLSLGQVSAWQQHHLGQAALSSLVAGGQLSQGSNLSINTNQNISIKSEPISPPRDRMTPSGFQQQQQQQQQQQPPPPPQPQPQPPQPQPRQEMGRSPVDSLSSSSSSYDGSDREDPRGDFHSPIVLGRPPNTEDRESPSVKRMRMDAWVT

Variants of: B1
Details: with sumo2_human SUMO2, P61956
Chain of sumo2_human SUMO2, P61956 (P61956 whole entry): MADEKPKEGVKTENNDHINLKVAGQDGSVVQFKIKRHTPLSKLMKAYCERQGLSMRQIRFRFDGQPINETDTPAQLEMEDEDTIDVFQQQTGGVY
K403R was tested, and the “effect of a mutation on the interaction” value was “disrupting interaction”. In the case of S408A, the “effect of a mutation on the interaction” value is reported as “disrupting interaction”.
